According to patent US20240301062A1 (BEIGENE SWITZERLAND, published 2024):
Like-named read-outs stand apart in the source and are kept apart here.

Assays:
CD3ε (SPR analyte) [1] = molecular target: T1, CD3ε (SPR analyte) (UniProt P07766 23-126, limits assumed); test: SPR
[2] = molecular target: T2, human native CD3 on live cells (HuT78, Jurkat) (human, UniProt P07766 23-207; P09693 23-182; P04234 22-171); test: FACS, HuT78 cells
T2 construct: whole, on cells; also called human CD3
Procedure: (§1) For affinity determination, antibodies were captured by anti-human Fc surface, and used in the affinity-assay based on surface plasmon resonance (SPR) technology. The binding activity of humanized sp34 to bind native CD3 on live cells was evaluated using HuT78 cells in a FACS based assay. Live HuT78 cells were seeded in 96-well plate, and were incubated with a series of dilutions of chimeric or humanized sp34. Mouse anti-Human IgG was used as second antibody to detect antibody binding to the cell surface. EC50 values for dose-dependent binding to human native CD3 were determined by fitting the dose-response data to the four-parameter logistic model with GraphPad Prism.

[3] = molecular target: T2, human native CD3 on live cells (HuT78, …); test: FACS, HuT78 cells, Test 1
Procedure: as §1

[4] = molecular target: T2, human native CD3 on live cells (HuT78, …); test: flow cytometry on live HuT78 cells, mouse anti-human IgG secondary, MFI
Procedure: as §1

[5] = molecular target: T2, human native CD3 on live cells (HuT78, …); test: as above; remark: listed apart in the source
Procedure: as §1

CD3ε (SPR analyte) [6] = molecular target: T1, CD3ε (SPR analyte); test: SPR, scFv-Fc
human claudin 6 (CLDN6) [7] = molecular target: T3, human claudin 6 (CLDN6) (human, UniProt P56747 1-220); test: FACS, HEK293-hCLDN6 cells
T3 construct: also called human CLDN6; hCLDN6
T3 sequence: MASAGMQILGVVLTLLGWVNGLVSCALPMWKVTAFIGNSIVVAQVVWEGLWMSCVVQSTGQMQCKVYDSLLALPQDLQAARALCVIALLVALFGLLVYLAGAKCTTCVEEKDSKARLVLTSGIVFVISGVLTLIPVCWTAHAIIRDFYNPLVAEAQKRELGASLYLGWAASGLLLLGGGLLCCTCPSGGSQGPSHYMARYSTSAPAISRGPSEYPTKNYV

human claudin 6 (CLDN6) [8] = molecular target: T3, human claudin 6 (CLDN6); test: flow cytometry on HEK293T/human CLDN6 cells, goat anti-human IgG secondary, MFI(PE)
Procedure: (§2) For affinity determination, CLDN6 over-expressing HEK293T cells and cancer cell line PA-1 which express high levels of human CLDN6 were used to evaluate the binding activity of BG87P related engineering variants. Live cells were seeded in 96-well plate, and were incubated with a series of dilutions of chBG87P and engineered variants thereof. Goat anti-human IgG was used as second antibody to detect antibody binding to the cell surface. EC50 values for dose-dependent binding to CLDN6 expressing cell lines were determined by fitting the dose-response data to the four-parameter logistic model with GraphPad Prism. Cell binding activity of 1st round of BG87P humanization variants against HEK293T/human CLDN6 were compared to chBG87P and shown in FIG. 1A.

mouse CLDN6 = molecular target: T4, mouse CLDN6 (mouse, UniProt Q9Z262 1-219); test: flow cytometry on CHOK1/mouse CLDN6 cells, MFI(PE)
T4 construct: whole, on cells
T4 sequence (looked up): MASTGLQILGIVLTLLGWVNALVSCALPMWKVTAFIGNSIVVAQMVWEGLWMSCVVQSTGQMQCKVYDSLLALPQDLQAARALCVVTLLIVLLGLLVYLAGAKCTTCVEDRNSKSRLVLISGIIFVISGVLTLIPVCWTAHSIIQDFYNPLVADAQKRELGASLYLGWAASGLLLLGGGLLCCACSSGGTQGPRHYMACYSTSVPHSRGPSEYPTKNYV

human claudin 9 (CLDN9) = molecular target: T5, human claudin 9 (CLDN9) (human, UniProt O95484 1-217); test: flow cytometry on HEK293T/human CLDN9 cells, MFI(PE)
T5 construct: also called human CLDN9
T5 sequence: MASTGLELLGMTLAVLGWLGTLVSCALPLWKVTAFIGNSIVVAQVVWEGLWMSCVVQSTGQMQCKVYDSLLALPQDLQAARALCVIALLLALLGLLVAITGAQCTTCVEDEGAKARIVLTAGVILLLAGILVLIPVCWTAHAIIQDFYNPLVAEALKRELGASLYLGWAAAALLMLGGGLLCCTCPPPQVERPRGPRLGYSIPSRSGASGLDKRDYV

human claudin 6 (CLDN6) [9] = molecular target: T3, human claudin 6 (CLDN6); test: FACS, HEK293T-hCLDN6 cells
cyno CLDN6 [10] = molecular target: T6, cyno CLDN6 (cyno); test: FACS, HEK293T-cyno-CLDN6 cells
T6 construct: whole, on cells; also called cynomolgus CLDN6

cyno CLDN6 [11] = molecular target: T6, cyno CLDN6; test: flow cytometry on CHOK1/cyno CLDN6 cells, MFI(PE)
cyno CLDN6 [12] = molecular target: T6, cyno CLDN6; test: FACS, HEK293T_cyno-CLDN6 cells
human claudin 6 (CLDN6) [13] = molecular target: T3, human claudin 6 (CLDN6); test: FACS, HEK293T/human CLDN6 cells
Procedure: as §2
Beginning with the chBG87P antibody and BG87P-Bz0, several additional amino acid changes in the CDR regions of both VH and VL were made to further improve the biophysical properties for therapeutics use in human. The considerations included removing post translational modifications (PTM), improved heat stability (Tm), while maintaining binding activities, the resulted variants are BG87P-m1 (VH SEQ ID NO: 31 and VL SEQ ID NO: 8), BG87P-m2 (VH SEQ ID NO: 32 and VL SEQ ID NO: 8), BG87P-m3 (VH SEQ ID NO: 33 and VL SEQ ID NO: 8), and BG87P-m4 (VH SEQ ID NO: 34 and VL SEQ ID NO: 8) and BG87P-m5 (VH SEQ ID NO: 35 and VL SEQ ID NO: 14), BG87P-m6 (VH SEQ ID NO: 36 and VL SEQ ID NO 14), BG87P-m7 (VH SEQ ID NO: 37 and VL SEQ ID NO: 14), and BG87P-m8 (VH SEQ ID NO: 38 and VL SEQ ID NO: 14). Cell binding activity of chBG87P and BG87P-Bz0 related PTM removal variants against HEK293T/human CLDN6 was compared with chBG87P and BG87-Bz0, respectively ([…]). Cell binding affinity (EC50) and Emax (MFI) was normalized to chBG87P for directly comparison and ranking (Table 7).

human claudin 6 (CLDN6) [14] = molecular target: T3, human claudin 6 (CLDN6); test: FACS, PA-1 cells (endogenous CLDN6)
Procedure: as §2

[15] = molecular target: T2, human native CD3 on live cells (HuT78, …); test: FACS, HuT78 cells; remark: listed apart in the source
Procedure: as §1

[16] = molecular target: T2, human native CD3 on live cells (HuT78, …); test: flow cytometry on live HuT78 cells, mouse anti-human IgG secondary, MFI; remark: listed apart in the source
Procedure: as §1

CD3ε (SPR analyte) [17] = molecular target: T1, CD3ε (SPR analyte); test: SPR, antibody captured by anti-human Fc
Procedure: as §1

CD3ε (SPR analyte) [18] = molecular target: T1, CD3ε (SPR analyte); test: SPR, antibody captured by anti-human Fc; remark: listed apart in the source
Procedure: as §1

T2 sequence (P07766 23-207, chain 1 of 3): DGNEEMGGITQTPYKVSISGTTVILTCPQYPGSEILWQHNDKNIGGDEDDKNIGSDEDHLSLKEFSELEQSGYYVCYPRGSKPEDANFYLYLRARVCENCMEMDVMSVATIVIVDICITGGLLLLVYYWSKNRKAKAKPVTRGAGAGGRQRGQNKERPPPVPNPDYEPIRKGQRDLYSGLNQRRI
T2 sequence (P09693 23-182, chain 2 of 3): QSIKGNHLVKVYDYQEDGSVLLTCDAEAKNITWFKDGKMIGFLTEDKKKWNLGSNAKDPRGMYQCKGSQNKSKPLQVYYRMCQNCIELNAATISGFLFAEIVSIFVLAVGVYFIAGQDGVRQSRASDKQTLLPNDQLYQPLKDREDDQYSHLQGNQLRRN
T2 sequence (P04234 22-171, chain 3 of 3): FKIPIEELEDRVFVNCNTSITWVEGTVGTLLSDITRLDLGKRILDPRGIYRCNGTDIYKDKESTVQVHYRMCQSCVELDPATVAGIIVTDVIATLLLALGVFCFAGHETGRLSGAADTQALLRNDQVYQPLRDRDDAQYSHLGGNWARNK
T1 sequence (P07766 23-126 limits assumed): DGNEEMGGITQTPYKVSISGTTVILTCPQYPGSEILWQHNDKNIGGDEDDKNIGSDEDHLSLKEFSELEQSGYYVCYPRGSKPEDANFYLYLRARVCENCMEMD

Binder	Kd (CD3ε (SPR analyte) [1])	koff (CD3ε (SPR analyte) [1])	kon (CD3ε (SPR analyte) [1])	EC50 [2]	EC50 (read off the curve) [5]	FACS-Ec50 ratio to BG87P (human claudin 6 (CLDN6) [7])	EC50 (read off the curve) (human claudin 6 (CLDN6) [8])	binding result (human claudin 9 (CLDN9))	FACS Emax ratio to BG87P (human claudin 6 (CLDN6) [9])	FACS Emax ratio to BG87P (cyno CLDN6 [10])	EC50 (read off the curve) (cyno CLDN6 [11])	EC50 (cyno CLDN6 [12])	EC50 [15]	EC50 (read off the curve) [16]	Kd (CD3ε (SPR analyte) [17])	koff (CD3ε (SPR analyte) [17])	kon (CD3ε (SPR analyte) [17])	Kd (CD3ε (SPR analyte) [18])	koff (CD3ε (SPR analyte) [18])	kon (CD3ε (SPR analyte) [18])	other results
humanized sp34 scFv BG561P (scFv-Fc) (Fc fusion, scFv (VH-3xG4S-VK) fused to N-terminus of a human IgG1 Fc region; also called scFv-ized BG56P; not shown: human IgG1 Fc region, scFv fused to its N-terminus) scFv: EVQLVESGGGLVQPGGSLRLSCAASGFTFNTYAMNWVRQAPGKGLEWVARIRSKYNNYATYYADSVKDRFTISRDDAKNSLYLQMNSLRAEDTAVYYCVRHGNFGNSYVSWFAYWGQGTLVTVSSGGGGSGGGGSGGGGSEIVLTQSPATLSVSPGERATLSCRSSTGAVTTSNYANWVQQKPGQAPRGLIGGTNKRAPGIPARFSGSLSGDEATLTISSLQSEDFAVYYCALWYSNLWVFGGGTKVEIK	9.08 nM	0.000401 s⁻¹	44200 M⁻¹ s⁻¹	4.35 nM	~0.5 µg/mL																EC50 [3]: 2.46 nM; EC50 (read off the curve) [4]: ~0.3 µg/mL; Kd (CD3ε (SPR analyte) [6]): 4.98 nM; koff (CD3ε (SPR analyte) [6]): 0.00036 s⁻¹; kon (CD3ε (SPR analyte) [6]): 72200 M⁻¹ s⁻¹
BG87P-34 (antibody, V domains shown, Framework-swapped final lead (IGHV3-23 / IGKV1-39); also called BG87-34) VH: EVQLQESGGGLVQPGGSLRLSCAASGYSFSDYHINWVRQAPGKGLEWVGYIYPGSGHTKYNEKFKGRFTISRDTSSNTAYLQMNSLRAEDTAVYYCARSGIYHYVSSYYFDHWGQGTLVTVSS VL: DIQMTQSPSSLSASVGDRVTITCKASQDAGSAVAWYQQKPGKAPKLLIYWASTRHTGVPSRFSGSGSGTDFTLTISSLQPEDFATYYCQQYSSYTFGGGTKLEIK						1.17 ratio	~10 nM	no binding (tested: about 250 nM (log 2.4))	1.03 ratio	1 ratio	~9 nM	8.8 nM									binding result (mouse CLDN6): binds
chimeric BG87P antibody (chBG87P) (antibody, V domains shown) VH: QIQLQQSGPELVKPGASVKISCKASGYSFTDYHINWVKQRPGQGLEWIGWIYPGSGYTKYNEKFKVKATLTVDTSSSTAYMHLTSLTSEDSAVYFCARSGIYHYVSSYYFDHWGQGTTLTVSS VL: DIVMTQSHTFMSTSVGDRVSITCKASQDVGTAVAWYQQKPGQSPKLLIYWASTRHTGVPDRFTGSGSGTDFTLTISNVQSEDLADYFCQQYSSYTFGGGTKLEIK						1 ratio	~10 nM	no binding (tested: about 250 nM (log 2.4))	1 ratio	1 ratio	~7 nM	7.2 nM									EC50 (human claudin 6 (CLDN6) [13]): 2.72 nM; Emax ratio to BG87P (human claudin 6 (CLDN6) [13]): 1 ratio; Top MFI Mean (human claudin 6 (CLDN6) [13]): 192000 MFI; EC50 (human claudin 6 (CLDN6) [14]): 8.33 nM; Emax ratio to BG87P (human claudin 6 (CLDN6) [14]): 1 ratio; Top MFI Mean (human claudin 6 (CLDN6) [14]): 125000 MFI
chimeric sp34 (ch-sp34) (antibody, V domains shown) VH: EVQLVESGGGLVQPKGSLKLSCAASGFTFNTYAMNWVRQAPGKGLEWVARIRSKYNNYATYYADSVKDRFTISRDDSQSILYLQMNNLKTEDTAMYYCVRHGNFGNSYVSWFAYWGQGTLVTVSS VL: QAVVTQESALTTSPGETVTLTCRSSTGAVTTSNYANWVQEKPDHLFTGLIGGTNKRAPGVPARFSGSLIGDKAALTITGAQTEDEAIYFCALWYSNLWVFGGGTKLTVL				1.9 nM	~0.3 µg/mL								2.49 nM	~0.4 µg/mL	2.3 nM	0.000496 s⁻¹	216000 M⁻¹ s⁻¹	2.3 nM	0.000496 s⁻¹	216000 M⁻¹ s⁻¹	
humanized sp34 BG53P (antibody, V domains shown, also called hu-sp34) VH: EVQLVESGGGLVQPGGSLRLSCAASGFTFNTYAMNWVRQAPGKGLEWVARIRSKYNNYATYYADSVKDRFTISRDDAKSSLYLQMNSLRAEDTAMYYCVRHGNFGNSYVSWFAYWGQGTLVTVSS VL: QAVVTQSPATLSVSPGERATLSCRSSTGAVTTSNYANWVQEKPGQLFTGLIGGTNKRAPGIPARFSGSLSGDEATLTISSLQSEDFAIYFCALWYSNLWVFGGGTKVEIK				1.8 nM	~0.3 µg/mL								1.72 nM	~0.3 µg/mL	4.58 nM	0.000484 s⁻¹	106000 M⁻¹ s⁻¹	2.65 nM	0.000525 s⁻¹	198000 M⁻¹ s⁻¹	
humanized sp34 BG56P (antibody, V domains shown) VH: EVQLVESGGGLVQPGGSLRLSCAASGFTFNTYAMNWVRQAPGKGLEWVARIRSKYNNYATYYADSVKDRFTISRDDAKNSLYLQMNSLRAEDTAVYYCVRHGNFGNSYVSWFAYWGQGTLVTVSS VL: EIVLTQSPATLSVSPGERATLSCRSSTGAVTTSNYANWVQQKPGQAPRGLIGGTNKRAPGIPARFSGSLSGDEATLTISSLQSEDFAVYYCALWYSNLWVFGGGTKVEIK	7.06 nM	0.000325 s⁻¹	46000 M⁻¹ s⁻¹	4.69 nM	~0.7 µg/mL								4.69 nM	~0.7 µg/mL	7.06 nM	0.000325 s⁻¹	46000 M⁻¹ s⁻¹				
